Where no end group is shown, it is not given here. [ ]: non-standard residue; d: D form.
Columns and labels:
purified vWf = biological target: T1, purified vWf (Homo sapiens, UniProt P04275); test: Random 15-mer D-peptide array probed with purified vWf; type: binding; details: peptide on cellulose membrane, detection with anti-human vWf IgG-HRP
T1 construct: gift of Dr. F. A. Ofosu, McMaster University
Text: Random D-amino acid peptides (15 mer) were synthesized and probed with vWf to detect random sequences capable of binding vWf.
Random peptide arrays of 1120 peptides made of D-amino acids were synthesized on a cellulose membrane using an AutoSpot ASP 222 peptide synthesizer (ABiMED, Langenfeld, Germany). The resulting replicate libraries of 15-mer sequences were probed for vWf binding function by exposing the membranes to purified vWf (a gift of Dr. F. A. Ofosu, McMaster University, Hamilton ON, Canada) and blocking with milk, then identifying positive spots with a polyclonal goat anti-human vWf IgG coupled to horseradish peroxidase (Cedarlane, Canada). Immunochemical detection was done using the chemiluminescent substrates from the Amersham Pharmacia ECL kit; and the resulting spots were recorded on photographic film. Negative controls consisted of probing the membranes with the antibodies only, but without prior exposure of the membrane to purified vWf.
Peptides on random 15-mer peptide arrays that were built of D-amino acids were selected by their binding of vWf. Four sequences were identified: D-pep1-VSRQNGKQYWAIKEG (SEQ ID NO:1); D-pep2-WQNEGTHVLSRCYEC (SEQ ID NO:2); D-pep3-RSARMQVCWNAFKNR (SEQ ID NO:3); and D-pep4-DSCPRDWDNNFLFFE (SEQ ID NO:4). […] The identification of each vWf-peptide binding interface constitutes the results that follow.
Source—a random d-peptide array was probed with vWf and developed with […]. “Forward” D-amino acid peptides were tested, although L-amino acid versions of the peptides as well as the reverse (retro) of both L- and D-sequences will be also encompassed within the scope of these receptor molecules.

purified GPIb = purified GPIb (Homo sapiens, UniProt P07359); test: Overlapping vWf L-peptides on cellulose membrane probed by purified GPIb; type: binding; details: detected by anti-GPIb coupled to HRP
Experimental: The vWf amino acid sequence was used to generate 10-mer L-amino acid overlapping peptides, shifted by two (2), according to the following pattern:
These peptides were synthesized and remained attached on the cellulose membrane. The membranes were probed by purified GPIb which was detected by anti-GPIb coupled to horseradish peroxidase (HRP). A number of positive spots were found whose sequences were derived from their positions on the membrane.
The sequences were analyzed in silico by (a) finding their positions in a 3D model of the parent protein (see FIG. 17) and then (b) relating that position to the potential vWf-GPIb interactive site.

[1] = Stability of the covalent linkage of peptide to hydrogel liposomes (Trp fluorescence); type: physicochemical; details: hypothermic liquid storage, 4° C., under nitrogen, in the dark
Experimental: In brief: fluorescence emission at 348 nm (excitation 280 nm) of the single tryptophan of peptide D-Pep3 was used to analyze the stability of the peptide on the liposomes' surface. Fluorescence emission standard curves of trp-associated fluorescence were prepared using a range of concentrations from 1 μM to 20 μM free peptide D-Pep3 in the presence of 1 mM PEG2000 or HL liposomes (FIG. 34).
HL and PEG2000 liposomes were reacted with D-Pep3 peptide (as described according to Scheme 1) then washed and adjusted to a concentration of 1 mM lipid. The fluorescence emission was measured. The samples were stored under nitrogen, in the dark, at 4° C. for one month. The liposomes were again washed, resuspended to the same lipid concentration and the fluorescence emission was measured as before (FIG. 35). The attachment was stable for >1 months in hypothermic liquid storage.

platelets = test: P-HL interaction with platelets in plasma (flow cytometry, co-aggregates); type: cell-based; details: 0.75 mM lipid, washed platelets, one hour at room temperature
Experimental: Red anti-Cd42-PE antibodies (7 μL) to detect platelets and 5 μL green anti-vWf-FITC antibodies at a 1/160 dilution were added to the tubes and incubated one more time for 30 min. The samples were diluted to 1 mL with formolsaline solution and analysed by flow cytometry. Singlet platelets (platelet gate), singlet liposomes and co-aggregates (P1 gate) were scored.
The post-stained aggregates were positive for CD42 (GPIb) and vWf. All the relevant controls were done, and the critical double stained examples (with anti-CD42-PE and anti-vWf-FITC) were as follows:
FIG. 37A: platelets alone, double stained with anti-CD42-PE and anti-vWF-FITC FIG. 37B: HL (control liposomes), double stained FIG. 37C: P-HL (D3-peptide hydrogel liposomes), double stained FIG. 37D: HL+platelets, (double stained) FIG. 37E: P-HL+platelets, (double stained)

vWf = biological target: T2, vWf (Homo sapiens, UniProt P04275); test: Capture of vWf from plasma cryoglobulin fraction; type: binding; details: human cryoprecipitate 1/100, 1 hour at 37° C., anti-vWf-FITC
T2 construct: mixed with 5 μL human cryoprecipitate diluted 1/100 in Hepes Buffered Saline; from tissue; host or cells: human plasma cryoprecipitate
Experimental: Aliquots of 30 μL of HL or D-Pep3-HL liposomes were mixed with 5 μL human cryoprecipitate diluted 1/100 in Hepes Buffered Saline, (10 mM Hepes, 154 mM NaCl, pH 7.4.) The samples were diluted in buffer to achieve final lipid concentrations of 0.1, 0.25, 0.5, 0.75 and 1 mM, and incubated for 1 hour at 37° C. Anti-vWf-FITC antibodies were added (final dilution 1/128) and incubated for 40 minutes at RT. Samples were diluted with 350 μl of formal-saline and analyzed by flow cytometry.

VSRQNGKQYWAIKEG (not fully specified) [D-pep1]
binding of vWf (purified vWf): binding to vWf

RSARMQVCWNAFKNR (not fully specified) [D-pep3]
binding of vWf (purified vWf): binding to vWf

EVLKYTLFQI [L-black]
binding of GPIb (positive spots) (purified GPIb): +ve

DSCPRDWDNNFLFFE (not fully specified) [D-pep4]
binding of vWf (purified vWf): binding to vWf

SHAYIGLKDR [L-brown]
binding of GPIb (positive spots) (purified GPIb): +ve

D-Pep3-HL: D-Pep3 peptide covalently attached by Michael addition to hydrogel-liposomes ([dR][dS][dA][dR][dM][dQ][dV][dC][dW][dN][dA][dF][dK][dN][dR]; also: covalently attached to PEG hydrogel-coated liposome by Michael addition (Cys thiol or amines))
stability of the peptide attachment [1]: > 1 months
aggregate formation with platelets (platelets): form aggregates
binding (capture) of vWf (vWf): able to bind their specific ligand

WQNEGTHVLSRCYEC (not fully specified; cysteine pairing not given here) [D-pep2]
binding of vWf (purified vWf): binding to vWf
